Results taken from article PMC4319933, “Insights into the Cellular Function of YhdE, a Nucleotide Pyrophosphatase from Escherichia coli” (PLoS ONE, 2015).

Experiments:
[1] = biological target: the molecule itself; experiment: SEC; size-exclusion chromatography after Ni2+ chelation; Bis-Tris buffer, pH 6.75; YhdE eluted at approximately 81 mL, approximately 45 kDa
[2] = substrate: Cc1cn([C@H]2C[C@H](O)[C@@H](COP(=O)(O)OP(=O)(O)OP(=O)(O)O)O2)c(=O)[nH]c1=O; experiment: purified protein; assay type: biochemical, Escherichia coli; settings: 2 mM Mn2+, 20 mM HEPES pH 7.0, 25 °C, 1.5 µM enzyme, apparent Km, Hill coefficient 2.2 (positive cooperativity)
[3] = substrate: O=c1ccn([C@@H]2O[C@H](COP(=O)(O)OP(=O)(O)OP(=O)(O)O)[C@@H](O)[C@H]2O)c(=O)[nH]1; experiment: purified protein; assay type: biochemical, Escherichia coli; settings: 2 mM Mn2+, 20 mM HEPES pH 7.0, 25 °C, 1.5 µM enzyme, apparent Km, Hill coefficient 1.9 (positive cooperativity)

B1: YhdE, a Maf-like protein in Escherichia coli (nucleotide pyrophosphatase) (enzyme, UniProt P25536 1-197, looked up)
chain: MTSLYLASGSPRRQELLAQLGVTFERIVTGIEEQRQPQESAQQYVVRLAREKARAGVAQTAKDLPVLGADTIVILNGEVLEKPRDAEHAAQMLRKLSGQTHQVMTAVALADSQHILDCLVVTDVTFRTLTDEDIAGYVASDEPLDKAGAYGIQGLGGCFVRKINGSYHAVVGLPLVETYELLSNFNALREKRDKHDG
notes: YhdE, Maf-like protein of Escherichia coli; the open reading frame of yhdE cloned into pFO4 (BamHI/EcoRI); also called recombinant YhdE; source: E. coli BL21(DE3), purified (Ni2+ chelation, size-exclusion chromatography)
stoichiometry N [1]: 2

B2: YhdE (Escherichia coli K-12) (protein)
chain: TSLYLASGSPRRQELLAQLGVTFERIVTGIEEQRQPQESAQQYVVRLAREKARAGVAQTAKDLPVLGADTIVILNGEVLEKPRDAEHAAQMLRKLSGQTHQVMTAVALADSQHILDCLVVTDVTFRTLTDEDIAGYVASDEPLDKAGAYGIQGLGGCFVRKINGSYHAVVGLPLVETYELLSNFNALREKRDKHDG
notes: dimer in solution ~45 kDa, monomer ~22 kDa; PDB entries are of the E33A mutant
Km [2]: 0.09 mM | Vmax [2]: 3600 µM/min | kcat [2]: 43 s⁻¹ | kcat/Km [2]: 503000 M⁻¹ s⁻¹ | Km [3]: 0.5 mM | Vmax [3]: 8400 µM/min | kcat [3]: 95 s⁻¹ | kcat/Km [3]: 191000 M⁻¹ s⁻¹
